In patent US12226476B2, “Helper epitope peptide and application thereof” (CHINA PHARMACEUTICAL UNIVERSITY, priority 2018, dated 2025):
Non-standard residues stand in square brackets, D forms with d. Phe(4-NO2) = N[C@@H](Cc1ccc([N+](=O)[O-])cc1)C(=O)O

What was measured:
Assay in all cases: Antibody titer in serum of immunized mice, indirect ELISA
Type in all cases: in vivo
[1] = tested on: CD66e; details: FIG. 6; compared with the CD66e group and the CD66e-PADRE group; mice immunized subcutaneously, 50 μg, Freund's adjuvant
Experimental: (§1) The protocol is as follows: • (1) The helper epitope was connected to individual antigens or antigen epitope with the linking peptide to construct multiple fusion antigens. The sequence of the linking peptide is GPSL (i.e. Gly-Pro-Ser-Leu) (SEQ ID NO:51). • (2) The fusion antigens from (1) were emulsified adequately with complete Freund's adjuvant of the same volume. Then to immunize mice via subcutaneous injection with the emulsion at the dose of 50 μg per mouse. The strains of experimental mice including C57, Fvb and Balb/C. After 7 days and 14 days of first immunization, the fusion antigens from (1) were emulsified adequately with incomplete Freund's adjuvant of the same volume and then to immunize mice via subcutaneous injection with the emulsion at the dose of 50 μg per mouse. • (3) There are two detection methods. One is to obtain the orbital blood of immunized mice on 7, 14, 21 and 28 day respectively, centrifuge the whole blood to get the serum. Then the antibody titer is detected by indirect ELISA. The other one is: one week after the last immunization, the mice are killed to get the spleen. PBMC (peripheral blood mononuclear cells) are isolated, and the CTL-mediated cytotoxicity is detected by LDH (lactate dehydrogenase) kit.
(§2) The first step was to construct the fusion antigen. According to each fusion antigen, C57BL/6 female mice aged 6-8 weeks were randomly divided into three groups with 6 mice in each group. They were PBS group, existing antigen or antigen epitope group, antigen-PADRE or antigen epitope-PADRE group, and vaccine group containing fusion antigen.
(§3) In the second step, using fusion antigen to immunize mice via subcutaneous injection for 3 times […] 50 μg each time. Mixed with Freund's adjuvant of the same volume.
(§4) Method 1: The whole blood was collected every week after immunization and centrifugated at 6000 rpm for 20 min to obtain the serum for a total of 4 weeks. Antibody titers were detected by indirect ELISA as follows: • (1) Coating: the existing antigen or antigen epitope was diluted to 5 μg/mL with coating solution. Then the 100 μL mixed solution was added into each well of enzyme immunoassay test strip, and incubated in 37° C. incubator for 2 h; • (2) use PBST to wash each well 5 times for 5 min each time; • (3) Sealing: 150 μL locking solution was added to each well of the enzyme immunoassay test strip and incubated at 4° C. overnight. • (4) Repeat step (2); • (5) Incubation first antibody: the collected mouse serum was diluted with antibody diluent. Then the 100 μL mixed solution was added into each well, and incubated at 37° C. for 2 h; • (6) Repeat step (2); • (7) Incubating secondary antibodies: HRP-GOAT Anti-mouse IgG was diluted with antibody dilution in the ratio of 1:10000, and 100 μL dilution was added to each well, and incubated at 37° C. for 45 min; • (8) Repeat step (2); • (9) Substrate addition: 100 μL TMB substrate reaction solution was added into each well of enzyme label, and incubated at 37° C. for 15 min in darkness. • (10) Termination reaction: 50 μL 2M H2SO4 was added into each well to terminate the reaction. • (11) Color development: the absorbance value of the sample in each well was detected at 450/630 nm.

[2] = tested on: PD-L1 molecule; details: FIG. 2; compared with the PD-L1 group and the PD-L1-PADRE group; mice immunized subcutaneously, 50 μg, Freund's adjuvant
Experimental: as §1, §2, §3, §4

[3] = tested on: EGFR; details: FIG. 4; compared with the EGFR group and the EGFR-PADRE group; mice immunized subcutaneously, 50 μg, Freund's adjuvant
Experimental: as §1, §2, §3, §4

[4] = tested on: CD20; details: FIG. 5; compared with the CD20 group and the CD20-PADRE group; mice immunized subcutaneously, 50 μg, Freund's adjuvant
Experimental: as §1, §2, §3, §4

B1: CD66e-6pPhe-PADRE: fusion antigen: CD66e linked via GPSL to helper epitope SEQ ID NO: 7 (protein)
chain: KLTIESTPFNVAEGKEVLLLVHNLPQHLFGYSWYKGERVDGNRQIIGYVIGTQQATPGPAYSGREIIYPNASLLIQNIIQNDTGFYTLHVIKSDLVNEEATGQFRVYPELPKPSISSNNSKPVEDKDAVAFTCEPETQDATYLWWVNNQSLPVSPRLQLSNGNRTLTLFNVTRNDTASYKCETQNPVSARRSDSVILNVLYGPDAPTISPLNTSYRSGENLNLSCHAASNPPAQYSWFVNGTFQQSTQELFIPNITVNNSGSYTCQAHNSDTGLNRTTVTTITVYAEPPKPFITSNNSNPVEDEDAVALTCEPEIQNTTYLWWVNNQSLPVSPRLQLSNDNRTLTLLSVTRNDVGPYECGIQNKLSVDHSDPVILNVLYGPDDPTISPSYTYYRPGVNLSLSCHAASNPPAQYSWLIDGNIQQHTQELFISNITEKNSGLYTCQANNSASGHSRTTVKTITVSAELPKPSISSNNSKPVEDKDAVAFTCEPEAQNTTYLWWVNGQSLPVSPRLQLSNGNRTLTLFNVTRNDARAYVCGIQNSVSANRSDPVTLDVLYGPDTPIISPPDSSYLSGANLNLSCHSASNPSPQYSWRINGIPQQHTQVLFIAKITPNNNGTYACFVSNLATGRNNSIVKSITVSASGTSPGLSAGPSLAKFVA[Phe(4-NO2)]WTLKAAA
antibody titer [1]: significant increase

B2: PD/L1-2pPhe-PADRE: fusion antigen: PD-L1 molecule linked via GPSL to helper epitope SEQ ID NO: 3 (protein)
chain: MQLKPMEINPEMLNKVLSRLGVAGQWRFVDVLGLEEESLGSVPAPACALLLLFPLTAQHENFRKKQIEELKGQEVSPKVYFMKQTIGNSCGTIGLIHAVANNQDKLGFEDGSVLKQFLSETEKMSPEDRAKCFEKNEAIQAAHDAVAQEGQCRVDDKVNFHFILFNNVDGHLYELDGRMPFPVNHGASSEDTLLKDAAKVCREFTEREQGEVRFSAVALCGPSLA[Phe(4-NO2)]FVAAWTLKAAA
antibody titer [2]: significant increase

B3: EGFR-4pPhe-PADRE: fusion antigen: EGFR linked via GPSL to helper epitope SEQ ID NO: 5 (protein)
chain: MERKERPFDVIGQLAALRRYARSLVRNSDDAEDLVHDALLRAYEKKQSFRRGGNLRTWLLSIMHNAHIDRVRQARSLARRHDEAAVEAEQSLQAGQEHAVRLKQVRDAFFHLSEEQREALHLVAIEDLSYQEAAMALDIPIGTLMSRISRARAQLREFEEKTPRAAHLRLIGGDGNEGNGPSLAKF[Phe(4-NO2)]AAWTLKAAA
antibody titer [3]: increased significantly

B4: CD20-5pPhe-PADRE: fusion antigen: CD20 linked via GPSL to helper epitope SEQ ID NO: 6 (protein)
chain: MTTPRNSVNGTFPAEPMKGPIAMQSGPKPLFRRMSSLVGPTQSFFMRESKTLGAVQIMNGLFHIALGGLLMIPAGIYAPICVTVWYPLWGGIMYIISGSLLAATEKNSRKCLVKGKMIMNSLSLFAAISGMILSIMDILNIKISHFLKMESLNFIRAHTPYINIYNCEPANPSEKNSPSTQYCYSIQSLFLGILSVMLIFAFFQELVIAGIVENEWKRTCSRPKSNIVLLSAEEKKEQTIEIKEEVVGLTETSSQPKNEEDIEIIPIQEEEEEETETNFPEPPQDQESSPIENDSSPGPSLAKFV[Phe(4-NO2)]AWTLKAAA
antibody titer [4]: significant increase
